Data as given in article doi:10.1101/2021.05.24.445460 (bioRxiv, 2021).

Molecular target: repeat-domain of Tau (Tau^RD) (human, UniProt P10636-8 244-373)
Experiment: co-IP

Chain of repeat-domain of Tau (Tau^RD) (P10636 561-690): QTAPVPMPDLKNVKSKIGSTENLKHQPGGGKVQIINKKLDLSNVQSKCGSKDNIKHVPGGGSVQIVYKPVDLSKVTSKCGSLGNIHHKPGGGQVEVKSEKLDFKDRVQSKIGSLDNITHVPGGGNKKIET

fold band intensity against cell control, 1 uM Tau^RD: 1.2 fold
fold band intensity against cell control, 5 uM Tau^RD: 2 fold
B1: microglial P2Y12 receptor (receptor, mouse (endogenous in N9), UniProt Q9CPV9 1-347, looked up)
chain: MDVPGVNTTSANTTFSPGTSTLCVRDYKITQVLFPLLYTVLFFAGLITNSLAMRIFFQIRSKSNFIIFLKNTVISDLLMILTFPFKILSDAKLGAGPLRTLVCQVTSVTFYFTMYISISFLGLITIDRYLKTTRPFKTSSPSNLLGAKILSVVIWAFMFLISLPNMILTNRRPKDKDVTKCSFLKSEFGLVWHEIVNYICQVIFWINFLIVIVCYSLITKELYRSYVRTRGSAKVPKKKVNVKVFIIIAVFFICFVPFHFARIPYTLSQTRAVFDCSAENTLFYVKESTLWLTSLNACLDPFIYFFLCKSFRNSLTSMLRCSNSTSTSGTNKKKGQEGGEPSEETPM
